Literature values, collected in paper PMC9249222.

Legend:
[1] = molecular target: UBR5 HECT PAM2L (Homo sapiens) (UniProt O95071)
PAIP PAM2 (Homo sapiens) = PAIP PAM2 (Homo sapiens) (UniProt Q9H074)
Sequence of PAIP PAM2 (Homo sapiens) (Q9H074 116-143): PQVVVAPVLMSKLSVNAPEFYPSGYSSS

Sequence of UBR5 MLLE (O95071 2377-2454): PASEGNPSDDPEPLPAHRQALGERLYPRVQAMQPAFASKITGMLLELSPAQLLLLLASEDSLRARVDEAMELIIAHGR

UBR5 MLLE (from UniProt O95071)
Kd [1]: 50 µM
Kd (PAIP PAM2 (Homo sapiens)): 3.4 µM
